Assays:
[1] = biological target: Exendin-4 (Heloderma suspectum) (UniProt P26349); experiment: static and dynamic light scattering (SLS/DLS); peptide concentration series in PBS, pH 7.4, 23 °C; scattering angle 90°; relative molecular mass and Stokes radius; monomer to oligomer
Exendin-4_F22R [2] = experiment: concentration-dependent relative molecular mass of self-association (method not named in legend); details: parent: est. 3.2; read off a plot
Exendin-4_F22R [3] = experiment: concentration-dependent Stokes radius of self-association (method not named in legend); details: parent: est. 2.3; read off a plot

Exendin-4 (from UniProt P26349 48-87) (peptide)
stoichiometry N [1]: 3

Exendin-4 (from UniProt P26349) F22R
other: relative molecular mass Mrel (Exendin-4_F22R [2]): 0.95
other: Stokes radius RS (Exendin-4_F22R [3]): 1.6 nm
